Assay results: the supplement of paper PMC11246515
± gives the standard deviation of the averaged measurements.

Experiment: total protein half-life in vivo (active degradation + dilution); higher = more stable protein
[1] = E. coli NCM3722 delta-clpP delta-lon delta-hslV, growth: N-lim chemostat, doubling time 6 h
[2] = E. coli NCM3722 delta-clpP, growth: N-lim chemostat, doubling time 6 h
[3] = E. coli NCM3722 delta-lon, growth: N-lim chemostat, doubling time 6 h
[4] = E. coli NCM3722 delta-smpB, growth: N-lim chemostat, doubling time 6 h
[5] = wild type E. coli NCM3722, growth: C-lim chemostat, doubling time 3 h
[6] = wild type E. coli NCM3722, growth: N-lim chemostat, doubling time 6 h
[7] = wild type E. coli NCM3722, growth: N-lim chemostat, doubling time 12 h
[8] = wild type E. coli NCM3722, growth: P-lim chemostat, doubling time 6 h
[9] = wild type E. coli NCM3722, growth: P-lim chemostat, doubling time 12 h
[10] = E. coli NCM3722 delta-hslV, growth: N-lim chemostat, doubling time 6 h
[11] = wild type E. coli NCM3722, growth: C-lim chemostat, doubling time 6 h
[12] = wild type E. coli NCM3722, growth: C-lim chemostat, doubling time 12 h

Row | Sequence | total protein half-life in vivo [1] [h] | total protein half-life in vivo [2] [h] | total protein half-life in vivo [3] [h] | total protein half-life in vivo [4] [h] | total protein half-life in vivo [5] [h] | total protein half-life in vivo [6] [h] | total protein half-life in vivo [7] [h] | total protein half-life in vivo [8] [h] | total protein half-life in vivo [9] [h] | total protein half-life in vivo [10] [h] | total protein half-life in vivo [11] [h] | total protein half-life in vivo [12] [h]
1 | MSFLLPIQLFKILADETRLGIVLLLSELGELCVCDLCTALDQSQPKISRHLALLRESGLLLDRKQGKWVHYRLSPHIPAWAAKIIDEAWRCEQEKVQAIVRNLARQNCSGDSKNICS | 6.03 | 5.66 | 5.43 | 5.01 ± 0.46 | 2.68 | 4.89 | 9.59 | 5.5 | 9.37 | – | – | –
2 | MSFNTIIDWNSCTAEQQRQLLMRPAISASESITRTVNDILDNVKARGDEALREYSAKFDKTTVTALKVSAEEIAAASERLSDELKQAMAVAVKNIETFHTAQKLPPVDVETQPGVRCQQVTRPVASVGLYIPGGSAPLFSTVLMLATPASIAGCKKVVLCSPPPIADEILYAAQLCGVQDVFNVGGAQAIAALAFGTESVPKVDKIFGPGNAFVTEAKRQVSQRLDGAAIDMPAGPSEVLVIADSGATPDFVASDLLSQAEHGPDSQVILLTPAADMARRVAEAVERQLAELPRAETARQALNASRLIVTKDLAQCVEISNQYGPEHLIIQTRNARELVDSITSAGSVFLGDWSPESAGDYASGTNHVLPTYGYTATCSSLGLADFQKRMTVQELSKEGFSALASTIETLAAAERLTAHKNAVTLRVNALKEQA | 4.6 ± 0.29 | 4.43 ± 0.94 | 4.89 ± 0.47 | 4.3 ± 0.25 | 3.3 ± 0.18 | 4.23 ± 0.25 | 6.67 ± 0.38 | 5.595 ± 0.053 | 11.9 ± 0.35 | 3.96 ± 0.073 | 5.97 ± 0.23 | 10.8 ± 1.1
3 | MSFSCPLCHQPLSREKNSYICPQRHQFDMAKEGYVNLLPVQHKRSRDPGDSAEMMQARRAFLDAGHYQPLRDAIVAQLRERLDDKATAVLDIGCGEGYYTHAFADALPEITTFGLDVSKVAIKAAAKRYPQVTFCVASSHRLPFSDTSMDAIIRIYAPCKAEELARVVKPGGWVITATPGPRHLMELKGLIYNEVHLHAPHAEQLEGFTLQQSAELCYPMRLRGDEAVALLQMTPFAWRAKPEVWQTLAAKEVFDCQTDFNIHLWQRSY | 6.07 ± 0.81 | 4.95 ± 0.29 | 4.9 ± 0.089 | 4.28 ± 0.53 | 2.57 | 5.34 ± 0.44 | 9.24 ± 0.73 | 5.78 ± 0.22 | 13.5 ± 2.7 | 4.97 | 5.6 | 10.8 ± 0.77
4 | MSFSVDVLANIAIELQRGIGHQDRFQRLITTLRQVLECDASALLRYDSRQFIPLAIDGLAKDVLGRRFALEGHPRLEAIARAGDVVRFPADSELPDPYDGLIPGQESLKVHACVGLPLFAGQNLIGALTLDGMQPDQFDVFSDEELRLIAALAAGALSNALLIEQLESQNMLPGDATPFEAVKQTQMIGLSPGMTQLKKEIEIVAASDLNVLISGETGTGKELVAKAIHEASPRAVNPLVYLNCAALPESVAESELFGHVKGAFTGAISNRSGKFEMADNGTLFLDEIGELSLALQAKLLRVLQYGDIQRVGDDRCLRVDVRVLAATNRDLREEVLAGRFRADLFHRLSVFPLSVPPLRERGDDVILLAGYFCEQCRLRQGLSRVVLSAGARNLLQHYSFPGNVRELEHAIHRAVVLARATRSGDEVILEAQHFAFPEVTLPTPEVAAVPVVKQNLREATEAFQRETIRQALAQNHHNWAACARMLETDVANLHRLAKRLGLKD | – | – | 4.32 | 3.19 ± 0.46 | 2.33 | 3.76 | 5.2 ± 0.5 | – | 7.35 ± 0.38 | – | – | 7.42 ± 0.3
5 | MSFTRRKFVLGMGTVIFFTGSASSLLANTRQEKEVRYAMIHDESRCNGCNICARACRKTNHVPAQGSRLSIAHIPVTDNDNETQYHFFRQSCQHCEDAPCIDVCPTGASWRDEQGIVRVEKSQCIGCSYCIGACPYQVRYLNPVTKVADKCDFCAESRLAKGFPPICVSACPEHALIFGREDSPEIQAWLQQNKYYQYQLPGAGKPHLYRRFGQHLIKKENV | 4.71 ± 0.073 | – | – | – | – | – | – | – | 15.8 | – | – | –
6 | MSFVVIIPARYASTRLPGKPLVDINGKPMIVHVLERARESGAERIIVATDHEDVARAVEAAGGEVCMTRADHQSGTERLAEVVEKCAFSDDTVIVNVQGDEPMIPATIIRQVADNLAQRQVGMATLAVPIHNAEEAFNPNAVKVVLDAEGYALYFSRATIPWDRDRFAEGLETVGDNFLRHLGIYGYRAGFIRRYVNWQPSPLEHIEMLEQLRVLWYGEKIHVAVAQEVPGTGVDTPEDLERVRAEMR | 4.88 ± 0.51 | 4.7 ± 0.29 | 4.949 ± 0.04 | 4.68 ± 0.18 | 2.84 ± 0.45 | 4.72 ± 0.32 | 7.79 ± 0.56 | 5.81 ± 0.29 | 12.6 ± 0.66 | 4.68 ± 0.45 | 6.6 ± 0.59 | 10.8 ± 0.44
7 | MSGFYHKHFLKLLDFTPAELNSLLQLAAKLKADKKSGKEEAKLTGKNIALIFEKDSTRTRCSFEVAAYDQGARVTYLGPSGSQIGHKESIKDTARVLGRMYDGIQYRGYGQEIVETLAEYASVPVWNGLTNEFHPTQLLADLLTMQEHLPGKAFNEMTLVYAGDARNNMGNSMLEAAALTGLDLRLVAPQACWPEAALVTECRALAQQNGGNITLTEDVAKGVEGADFIYTDVWVSMGEAKEKWAERIALLREYQVNSKMMQLTGNPEVKFLHCLPAFHDDQTTLGKKMAEEFGLHGGMEVTDEVFESAASIVFDQAENRMHTIKAVMVATLSK | 3.57 ± 0.61 | 2.14 ± 0.064 | 2.62 ± 0.044 | 2.52 ± 0.042 | 2.9 ± 0.032 | 2.52 ± 0.23 | 3.48 ± 0.63 | 5.11 ± 0.34 | 8.84 ± 0.35 | 2.09 ± 0.27 | 4.71 ± 0.28 | 7.42 ± 1.9
8 | MSGSNTAISRRRLLQGAGAMWLLSVSQVSLAAVSQVVAVRVWPASSYTRVTVESNRQLKYKQFALSNPERVVVDIEDVNLNSVLKGMAAQIRADDPFIKSARVGQFDPQTVRMVFELKQNVKPQLFALAPVAGFKERLVMDLYPANAQDMQDPLLALLEDYNKGDLEKQVPPAQSGPQPGKAGRDRPIVIMLDPGHGGEDSGAVGKYKTREKDVVLQIARRLRSLIEKEGNMKVYMTRNEDIFIPLQVRVAKAQKQRADLFVSIHADAFTSRQPSGSSVFALSTKGATSTAAKYLAQTQNASDLIGGVSKSGDRYVDHTMFDMVQSLTIADSLKFGKAVLNKLGKINKLHKNQVEQAGFAVLKAPDIPSILVETAFISNVEEERKLKTATFQQEVAESILAGIKAYFADGATLARRG | 4.83 ± 0.39 | 5.68 ± 1.5 | 5.12 ± 0.18 | 4.18 ± 0.3 | 2.74 ± 0.23 | 5.19 ± 1.1 | 8.626 ± 0.061 | 5.29 ± 0.18 | 10.4 ± 0.28 | 5.1 ± 0.2 | 4.852 ± 0.02 | 9.06 ± 0.98
